Data reported in US20080293915A1 (published 2008).
Ends that are not written are not given here.

Molecular target: T1, human GABAC receptor rho1 subunit expressed on stably transfected neuroblastoma cells (human, UniProt P24046 22-479)
T1 construct: whole, on cells; the pentameric state on these cells was not measured; also called GABAC human ρ1; GABAC-transfected neuroblastoma cells
Experiment: phage display panning (Ph.D-12 library): subtraction on non-transfected neuroblastoma cells, then three rounds on GABAC-transfected neuroblastoma cells; clones sequenced
Description: Screening of phage display peptides with GABAC-expressing cells MAY employ phage display to identify 12-mer peptide sequences that can serve as an NNP anchoring element. GABAC-transfected neuroblastoma cells have yielded sequences of peptides that preferentially bind to GABAC-expressing cells. For phage selection, we used a screening method similar to that previously used to identify phages that bind to ErbB receptors (Stortelers et al., 2003). Briefly, 2×10¹⁰ phages (Ph.D-12 library from New England Biolabs, MA) were incubated with control, non-transfected neuroblastoma cells in binding buffer (PBS containing 0.2% BSA, 0.05% Tween 20) for 2 hr. Non-bound phages were collected and then incubated with GABAC-transfected neuroblastoma cells for 2 hr. After rinsing several times with washing buffer (0.05% Tween 20 in PBS), bound phages were eluted using an acidic glycine buffer (50 mM glycine, 150 mM NaCl, pH 2.7) and neutralized with 1 M Tris, pH 8. After phage titration of the eluate, we performed a second and then a third round of bio-panning using the GABAC-transfected neuroblastoma cells. After the third round of panning, DNA isolated from individual phage plaques was sequenced. […] The 7 illustrated sequences represent individual phage clones from a total of 36 sequenced clones.

T1 sequence (P24046 22-479): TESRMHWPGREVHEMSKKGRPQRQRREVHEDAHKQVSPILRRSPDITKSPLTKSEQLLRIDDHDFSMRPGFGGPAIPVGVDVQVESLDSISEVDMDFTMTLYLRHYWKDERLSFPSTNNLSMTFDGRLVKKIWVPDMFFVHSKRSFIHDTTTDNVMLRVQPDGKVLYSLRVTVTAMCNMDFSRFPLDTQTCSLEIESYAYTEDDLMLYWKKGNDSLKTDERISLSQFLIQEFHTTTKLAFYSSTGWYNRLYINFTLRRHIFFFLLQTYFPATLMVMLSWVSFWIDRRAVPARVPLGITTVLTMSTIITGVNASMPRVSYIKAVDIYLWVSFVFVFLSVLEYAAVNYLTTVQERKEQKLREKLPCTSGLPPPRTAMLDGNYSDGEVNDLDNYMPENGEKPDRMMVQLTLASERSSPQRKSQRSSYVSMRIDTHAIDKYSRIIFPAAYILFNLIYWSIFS

Row | Binder | binding result
1 | HPYDSLHFPRMS (not fully specified, also called Phage ID 6-1; not shown: protein III of bacteriophage M13 (Ph.D-12 library, New England Biolabs); any li) [Phage-displayed 12-mer peptide HPYDSLHFPRMS (Group B; Phage ID 4, 6-1)] | binds
2 | HETAVRQTSPPM (not fully specified, no synthetic peptide was tested; also called Phage ID 20; Phage ID 22; not shown: protein III of bacteriophage M13 (Ph.D-12 library, New England Biolabs); any li) [Phage-displayed 12-mer peptide HETAVRQTSPPM (Group A; Phage ID 9, 20, 22)] | binds
3 | HETACRQTSPPM (not fully specified, not shown: protein III of bacteriophage M13 (Ph.D-12 library, New England Biolabs); any li) [Phage-displayed 12-mer peptide HETACRQTSPPM (Group A; Phage ID 11)] | binds
4 | HPKQSLHFPDLS (not fully specified, not shown: protein III of bacteriophage M13 (Ph.D-12 library, New England Biolabs); any li) [Phage-displayed 12-mer peptide HPKQSLHFPDLS (Group B; Phage ID 6)] | binds
